Where “and” joins values, the source holds several entries; their conditions need not be identical. Identical values can stand only once.
Tests used:
[1] = molecular target: prostate specific membrane antigen (PSMA), full-length, on the cell surface (human) (UniProt Q04609); experiment: fraction of radiolabel bound to cells, average
[2] = molecular target: prostate specific membrane antigen (PSMA), full-length, on the cell surface (human) (UniProt Q04609); experiment: fraction of radiolabel bound to cells, PSMA-3T3
[3] = molecular target: prostate specific membrane antigen (PSMA), full-length, on the cell surface (human) (UniProt Q04609); experiment: cell-based or functional assay

Chain of prostate specific membrane antigen (PSMA), full-length, on the cell surface (human) (Q04609 whole entry): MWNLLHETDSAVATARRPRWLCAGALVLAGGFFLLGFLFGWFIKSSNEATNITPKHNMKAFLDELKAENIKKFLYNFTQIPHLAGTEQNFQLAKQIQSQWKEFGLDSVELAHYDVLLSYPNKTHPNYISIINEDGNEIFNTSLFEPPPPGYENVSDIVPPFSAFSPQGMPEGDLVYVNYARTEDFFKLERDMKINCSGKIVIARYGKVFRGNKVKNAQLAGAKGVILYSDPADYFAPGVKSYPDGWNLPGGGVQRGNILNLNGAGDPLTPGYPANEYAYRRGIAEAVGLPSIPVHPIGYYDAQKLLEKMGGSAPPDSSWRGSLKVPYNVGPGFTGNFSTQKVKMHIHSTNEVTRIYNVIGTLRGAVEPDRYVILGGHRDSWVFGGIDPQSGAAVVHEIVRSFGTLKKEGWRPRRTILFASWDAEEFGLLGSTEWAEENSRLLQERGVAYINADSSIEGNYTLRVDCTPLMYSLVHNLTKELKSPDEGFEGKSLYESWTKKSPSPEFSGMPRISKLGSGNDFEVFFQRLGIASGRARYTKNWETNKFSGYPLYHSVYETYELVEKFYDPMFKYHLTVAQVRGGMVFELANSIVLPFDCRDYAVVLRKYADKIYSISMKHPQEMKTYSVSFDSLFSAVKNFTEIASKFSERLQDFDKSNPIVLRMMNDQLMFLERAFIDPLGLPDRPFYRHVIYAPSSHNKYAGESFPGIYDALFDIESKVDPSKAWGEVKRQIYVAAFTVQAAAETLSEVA

Row | Substance | Immunoreactivity (%) [1] [%] | Immunoreactivity (%) [2] | LD50, immunotoxin cytotoxicity (Mab-Zap saporin) on C4-2 cells [3] [pM] | LD50, immunotoxin cytotoxicity (Mab-Zap saporin) on PSMA-3T3 cells [3] [pM]
1 | 111In radiolabeled mJ591 (antibody) | 56.7 | 58.5% and 54.9% | – | –
2 | mAb J591 (antibody) | – | – | 88.2 | 89

Source: patent publication US20040033229A1
